Consider 40 molecules from US7364741.

For assay [1], the target named is HLA-A2.1 molecules expressed by 174CEM.T2 cells (human). As to the kind of experiment: T2 HLA-A2.1 stabilisation, flow cytometry (BB7.2), peptide 200 ug/ml.
The target of assay [2] is T1, HLA-A3.2 molecules isolated from the EBV transformed cell line GM3107 (human).
Assay [3] deals with HLA-A24 molecules isolated from the EBV transformed cell line KT3 (human). As to the kind of experiment: competition with radiolabeled probe [..], purified HLA-A24; IC50 standard / IC50 peptide.
The target in assay [4] is T1, HLA-A3.2 molecules isolated from the …. As to the kind of experiment: competition with radiolabeled probe [..], purified HLA-A3.2; IC50 standard / IC50 peptide.
Assay [5] has as its target HLA-A11.2 molecules isolated from the cell line BVR (human). The assay can be described thus: competition with radiolabeled probe [..], purified HLA-A11.2; IC50 standard / IC50 peptide.
Assay [6] concerns the target HLA-A1 molecules isolated from the EBV transformed cell line Steinlin (human). The assay can be described thus: competition with radiolabeled probe [..], purified HLA-A1; IC50 standard / IC50 peptide.
[7] abbreviates: remark: other sources report otherwise.

Like-named read-outs stand apart in the source and are kept apart here.

PLCDLLIRC (modifications not checked) [… (residues 102-110 of HPV16 protein E6)]: in assay [1], the FI (Fluorescence Index) came out at 2.1 and the MF (mean fluorescence) was determined as 205.
The like results for LCTELQTTI (modifications not checked) [… (residues 22-30 of HPV16 protein E6)] were, in that order, 0.7 and 114.
In assay [1], MLDLQPETT (modifications not checked) [… (residues 12-20 of HPV16 protein E7)] yielded an FI (Fluorescence Index) of 2.3 and an MF (mean fluorescence) of 218.
In the case of KFYSKISEY (modifications not checked) [… (residues 75-83 of HPV16 protein E6)], the binding ratio to standard in assay [2] (setting [7]) is 0.01.
For the molecule SLQDIEITC (modifications not checked) [… (residues 24-32 of HPV18 protein E6)], in assay [1], the FI (Fluorescence Index) came out at 0.7 and the MF (mean fluorescence) came to 244.
For the molecule VYDFAFRDL (modifications not checked) [… (residues 49-57 of HPV16 protein E6)], the binding ratio to standard in assay [3] amounted to 0.061.
Take AMFQDPQER (modifications not checked) [… (residues 7-15 of HPV16 protein E6)]: the binding ratio to standard in assay [4] (setting [7]) came to 0.1; in assay [5] (setting [7]), 0.84.
As to QQLLRREVY (modifications not checked) [… (residues 42-50 of HPV16 protein E6)], the binding ratio to standard came to 0.0058 in assay [4] and 0.0084 in assay [5].
Consider SLYGTTLEQ (modifications not checked) [… (residues 89-97 of HPV16 protein E6)], for which the binding ratio to standard in assay [4] was determined as 0.008.
For the molecule RAHYNIVTF (modifications not checked) [… (residues 49-57 of HPV16 protein E7)], in assay [3], the binding ratio to standard came to 0.067.
As for KLPDLCTEL (modifications not checked) [… (residues 13-21 of HPV18 protein E6)], in assay [1] (setting [7]), the FI (Fluorescence Index) came to 2.1 and the MF (mean fluorescence) turned out to be 439.
As to HLDKKQRFH (modifications not checked) [… (residues 125-133 of HPV16 protein E6)], the binding ratio to standard in assay [4] (setting [7]) came out at 0.44.
LLRREVYDF (modifications not checked) [… (residues 44-52 of HPV16 protein E6)]: the binding ratio to standard in assay [3] came out at 0.0023.
Take FQQLFLNTL (modifications not checked) [… (residues 86-94 of HPV18 protein E7)]: in assay [1], the FI (Fluorescence Index) was 0.8 and the MF (mean fluorescence) worked out at 244.
As for QLCTELQTT (modifications not checked) [… (residues 21-29 of HPV16 protein E6)], in assay [1] (setting [7]), the FI (Fluorescence Index) stood at 2.2 and the MF (mean fluorescence) was found to be 212.
For YMLDLQPET (modifications not checked) [… (residues 11-19 of HPV16 protein E7)], in assay [1], the FI (Fluorescence Index) came to 3.3 and the MF (mean fluorescence) turned out to be 284.
As usually defined, the IC50 is the point on the concentration scale where inhibition reaches its midpoint. A lower IC50 goes with higher potency. KVFPYALINK (modifications not checked) [probe peptide … for A3.2] came in with an IC50 in assay [2] of 30 nM.
For RFHNIRGRW (modifications not checked) [… (residues 131-139 of HPV16 protein E6)], the binding ratio to standard in assay [3] stood at 0.1.
Take HVDIRTLED (modifications not checked) [… (residues 73-81 of HPV16 protein E7)]: the binding ratio to standard in assay [6] came out at 0.014.
As to QLFLNTLSF (modifications not checked) [… (residues 88-96 of HPV18 protein E7)], in assay [1], the FI (Fluorescence Index) came out at 0.8 and the MF (mean fluorescence) was found to be 258.
The like results for FAFKDLFVV (modifications not checked) [… (residues 47-55 of HPV18 protein E6)] were, in that order, 2.3 and 463.
In the same order, the values of LSFVCPWCA (modifications not checked) [… (residues 94-102 of HPV18 protein E7)] are 0.9 and 262.
The like results for IHDIILECV (modifications not checked) [… (residues 30-38 of HPV16 protein E6)] were, in that order, 1.3 and 151.
For IVYRDGNPY (modifications not checked) [… (residues 59-67 of HPV16 protein E6)], the binding ratio to standard was found to be 3 in assay [4] (setting [7]) and 0.47 in assay [5] (setting [7]).
In assay [1], GTLGIVCPI (modifications not checked) [… (residues 85-93 of HPV16 protein E7)] had an FI (Fluorescence Index) of 2.3 and an MF (mean fluorescence) of 216.
On to TLEDLLMGT (modifications not checked) [… (residues 78-86 of HPV16 protein E7)], for which, in assay [1], the FI (Fluorescence Index) worked out at 1.8 and the MF (mean fluorescence) worked out at 183.
With YRDGNPYAV (modifications not checked) [… (residues 61-69 of HPV16 protein E6)], in assay [6], the binding ratio to standard is 0.008.
In the case of KISEYRHYC (modifications not checked) [… (residues 79-87 of HPV16 protein E6)], in assay [1], the FI (Fluorescence Index) was 2.2 and the MF (mean fluorescence) turned out to be 212.
With TTLEQQYNK (modifications not checked) [… (residues 93-101 of HPV16 protein E6)], the binding ratio to standard in assay [4] came to 0.078.
In assay [1], DTLEKLTNT (modifications not checked) [… (residues 88-96 of HPV18 protein E6)] had an FI (Fluorescence Index) of 0.7 and an MF (mean fluorescence) of 238.
In assay [1] (setting [7]), CVYCKQQLL (modifications not checked) [… (residues 37-45 of HPV16 protein E6)] yielded an FI (Fluorescence Index) of 2 and an MF (mean fluorescence) of 195.
In assay [1], KTVLELTEV (modifications not checked) [… (residues 36-44 of HPV18 protein E6)] returned an FI (Fluorescence Index) of 2.3 and an MF (mean fluorescence) of 468.
In the same order, the values of LTNTGLYNL (modifications not checked) [… (residues 93-101 of HPV18 protein E6)] are 1.5 and 352.
Take EITCVYCKT (modifications not checked) [… (residues 29-37 of HPV18 protein E6)]: in assay [1] (setting [7]), the FI (Fluorescence Index) is 0.5 and the MF (mean fluorescence) amounted to 206.
In assay [1], LFLNTLSFV (modifications not checked) [… (residues 89-97 of HPV18 protein E7)] showed an FI (Fluorescence Index) of 1.6 and an MF (mean fluorescence) of 360.
Take ELTEVFEFA (modifications not checked) [… (residues 40-48 of HPV18 protein E6)]: in assay [1] (setting [7]), the FI (Fluorescence Index) came out at 1.1 and the MF (mean fluorescence) was determined as 289.
RLCVQSTHV (modifications not checked) [… (residues 66-74 of HPV16 protein E7)]: in assay [1], the FI (Fluorescence Index) amounted to 2.8 and the MF (mean fluorescence) stood at 250.
MHQKRTAMF (modifications not checked) [… (residues 1-9 of HPV16 protein E6)]: the binding ratio to standard in assay [3] worked out at 0.0049.
Take EIDGPAGQA (modifications not checked) [… (residues 37-45 of HPV16 protein E7)]: the binding ratio to standard in assay [6] worked out at 0.025.
In assay [1], TIHDIILEC (modifications not checked) [… (residues 29-37 of HPV16 protein E6)] registered an FI (Fluorescence Index) of 1.8 and an MF (mean fluorescence) of 184.
